Data reported in publication PMC9672406 (The Journal of Biological Chemistry, 2022).

Target: the molecule itself
Assay: AUC

B1: MqnA from Streptomyces coelicolor (chorismate dehydratase), wild type (enzyme)
chain: DNSRTRPRVGHIQFLNCLPLYWGLARTGTLLDFELTKDTPEKLSEQLVRGDLDIGPVTLVEFLKNADDLVAFPDIAVGCDGPVMSCVIVSQVPLDRLDGARVALGSTSRTSVRLAQLLLSERFGVQPDYYTCPPDLSLMMQEADAAVLIGDAALRANMIDGPRYGLDVHDLGALWKEWTGLPFVFAVWAARRDYAEREPVITRKVHEAFLASRNLSLEEVEKVAEQAARWEAFDEDTLAKYFTTLDFRFGAPQLEAVTEFARRVGPTTGFPADVKVELLKP
  stoichiometry N: 2
